Data reported in US20200407442A1 (WUXI BIOLOGICS IRELAND, published 2020).
Where a chain is given by its changes, count along the chain named.

T1: human LAG-3-ECD.D12.mFc mutant D131A (human, UniProt P18627 37-252)
T1 construct: Alanine scanning mutant; construct limits as for m26
T1 chain: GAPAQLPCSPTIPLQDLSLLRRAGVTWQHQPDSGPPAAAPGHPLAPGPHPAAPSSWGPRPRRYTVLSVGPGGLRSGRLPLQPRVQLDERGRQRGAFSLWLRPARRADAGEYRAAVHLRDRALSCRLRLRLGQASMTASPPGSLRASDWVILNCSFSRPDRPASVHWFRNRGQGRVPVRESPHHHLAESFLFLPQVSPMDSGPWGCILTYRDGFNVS

T2: human LAG-3-ECD.D12.mFc mutant A40G (human, UniProt P18627 37-252)
T2 construct: construct limits as for m26
T2 chain: T1 chain with A4G, A95D

T3: human LAG-3-ECD.D12.mFc mutant P43A (human, UniProt P18627 37-252)
T3 construct: Alanine scanning mutant; construct limits as for m26
T3 chain: T1 chain with P7A, A95D

T4: human LAG-3-ECD.D12.mFc mutant R137A (human, UniProt P18627 37-252)
T4 construct: Alanine scanning mutant; construct limits as for m26
T4 chain: T1 chain with A95D, R101A

T5: human LAG-3-ECD.D12.mFc mutant W135A (human, UniProt P18627 37-252)
T5 construct: Alanine scanning mutant; construct limits as for m26
T5 chain: T1 chain with A95D, W99A

T6: human LAG-3-ECD.D12.mFc mutant W92A (human, UniProt P18627 37-252)
T6 construct: Alanine scanning mutant; construct limits as for m26
T6 chain: T1 chain with W56A, A95D

T7: full-length mouse LAG-3 on cells (mouse, UniProt Q61790 24-521)
T7 construct: also called mPro1.FL; murine LAG-3
T7 sequence: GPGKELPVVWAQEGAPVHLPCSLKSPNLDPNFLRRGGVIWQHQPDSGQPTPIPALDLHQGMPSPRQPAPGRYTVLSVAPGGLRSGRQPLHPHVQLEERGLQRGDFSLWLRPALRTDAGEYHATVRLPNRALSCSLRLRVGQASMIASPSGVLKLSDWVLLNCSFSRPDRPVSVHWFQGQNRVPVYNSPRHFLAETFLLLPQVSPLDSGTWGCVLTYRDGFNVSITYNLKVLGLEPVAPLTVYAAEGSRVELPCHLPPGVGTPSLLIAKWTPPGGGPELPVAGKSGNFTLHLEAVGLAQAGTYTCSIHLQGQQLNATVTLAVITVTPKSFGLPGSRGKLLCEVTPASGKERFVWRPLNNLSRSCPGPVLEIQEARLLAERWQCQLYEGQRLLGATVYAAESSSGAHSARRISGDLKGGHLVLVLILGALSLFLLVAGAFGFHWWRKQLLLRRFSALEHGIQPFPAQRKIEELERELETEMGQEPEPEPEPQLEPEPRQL

B1: 3.40.19-uAb-IgG4L (antibody, V domains shown)
VH: QLQLQESGPGLVKPSETLSLTCTVSGDSISSTSYYWGWIRQPPGKGLEWIGSFYYSGSTYYNPSLKSRVTISVDTSKNQFSLKLNSVTAADTAVYYCARMQLWSYDVDVWGQGTTVTVSS
VL: QSALTQPASVSGSPGQSITISCTGTSSDVGGYDYVAWYQQHPGKVPKLMIYDVSERPSGVSNRFSGSKSGNTASLTISGLQAEDEADYYCSSYTSTTTLVVFGGGTKLSVL
notes: Fully human antibody from OMT rats; IgG4 lambda by its name; also called 3.40.19-uAb-hIgG4L
B2: 1.53.3-uAb-IgG4k (antibody, V domains shown)
VH: QVQLQQWGAGLLKPSETLSLTCGVYGGSFSGYYWSWIRQPPGMGLEWIGEINHRGNTNYNPSLKSRVTISEDTSKNQFSLRLSSVTAADTAVYFCTRGEDYSDYDYYGDFWGQGTLVTVSS
VL: EIVLTQSPATLSLSQGERATLSCRASQSISSYLAWYQQKPGQAPRLLIYAASNRATGIPARFSGSGSGTDFTLTISSLEPEDFAIYYCQQRSNWPLTFGGGTKVEIK
notes: Fully human antibody from OMT rats; IgG4 kappa by its name

Columns and labels:
[1] = target: T1, human LAG-3-ECD.D12.mFc mutant D131A; assay: ELISA, antibody coated, LAG-3 D12.mFc mutant in supernatant, normalised to control mutants
Procedure, shortened: (§1)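 Antibody 1.53.3-uAb-IgG4k or 3.40.19-uAb-hIgG4L coated at 2 μg/mL, then exposed to supernatant containing quantified LAG-3 D12.mFc mutants. Detection with HRP anti-mFc (1:5000). Absorbance normalized to mean of control mutants; binding fold change <0.75 set as epitope cutoff.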

[2] = target: T2, human LAG-3-ECD.D12.mFc mutant A40G; assay: as above
Procedure, shortened: as §1

[3] = target: T3, human LAG-3-ECD.D12.mFc mutant P43A; assay: as above
Procedure, shortened: as §1

[4] = target: T4, human LAG-3-ECD.D12.mFc mutant R137A; assay: as above
Procedure, shortened: as §1

[5] = target: T5, human LAG-3-ECD.D12.mFc mutant W135A; assay: as above
Procedure, shortened: as §1

[6] = target: T6, human LAG-3-ECD.D12.mFc mutant W92A; assay: as above
Procedure, shortened: as §1

[7] = target: T7, full-length mouse LAG-3 on cells; assay: FACS on murine LAG-3-expressing Flp-In-CHO cells, MFI
Protocol: Cross-reactivity to cynomolgus and murine LAG-3 was measured by FACS. Murine LAG-3-expressing Flp-In-CHO cells or cynomolgus LAG-3-expressing 293F cells were transferred into 96-well U-bottom plates at a density of 1×10⁵ cells/well. Testing antibodies were serially diluted in wash buffer (1×PBS/1%BSA) and incubated with cells at 4° C. for 1 h. After washing with 1×PBS/1%BSA, corresponding secondary antibody was applied and incubated with cells at 4 ° C. in the dark for 1 h. The cells were then washed and resuspended in 1×PBS/1%BSA and then analyzed by flow cytometry.

Row | Binder | Fold Change [1] | Fold Change [2] | Fold Change [3] | Fold Change [4] | Fold Change [5] | Fold Change [6] | binding result [7]
1 | B1 | 0.045 | 0.608 | 0.494 | 0.101 | 0.049 | – | –
2 | B2 | – | – | – | – | – | 0.554 | no binding (tested: 6.7 nM)
